Target: chemokine receptor CXCR5 (overexpressed on CXCR5-CAR T cells) (UniProt P32302)
Experiment: cell-based or functional assay

Sequence of UniProt P32302 (P32302 whole entry): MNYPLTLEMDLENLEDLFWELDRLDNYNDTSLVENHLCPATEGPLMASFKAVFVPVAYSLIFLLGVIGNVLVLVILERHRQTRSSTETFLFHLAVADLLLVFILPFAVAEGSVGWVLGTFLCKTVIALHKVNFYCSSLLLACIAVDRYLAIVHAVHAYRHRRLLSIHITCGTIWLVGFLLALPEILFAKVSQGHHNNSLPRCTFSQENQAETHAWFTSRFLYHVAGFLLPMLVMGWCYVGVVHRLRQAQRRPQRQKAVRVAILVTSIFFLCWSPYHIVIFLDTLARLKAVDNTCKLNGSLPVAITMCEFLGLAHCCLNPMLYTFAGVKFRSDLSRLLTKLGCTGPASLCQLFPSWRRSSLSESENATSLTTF

CXCL13 stably transfected in A549 cells (A549-CXCL13) (from UniProt O43927 23-109) (ligand)
radio-isotope signal at the CXCL13 positive tumor site, EGFR-CXCR5-CAR compared with EGFR-CAR, 72 h: 3 fold | radio-isotope signal at the CXCL13 positive tumor site, EGFR-CXCR5-CAR compared with EGFR-CAR, 168 h: 7 fold

From patent publication US20210214418A1
